From patent publication US20160215061A1 come the findings set out here.

The assay has as its target recombinant mouse FcγRIIB expressed in NS0 cells (mouse) (UniProt P08101). The assay is described as follows: SPR (Biacore); capture sample on chip, rmFcgRIIB (NSO) injected; reference Herceptin. In general terms: In SPR one partner is held on a chip, and binding of the other changes the refractive index at the surface.

Chain of recombinant mouse FcγRIIB expressed in NS0 cells (mouse) (P08101 40-207 limits assumed): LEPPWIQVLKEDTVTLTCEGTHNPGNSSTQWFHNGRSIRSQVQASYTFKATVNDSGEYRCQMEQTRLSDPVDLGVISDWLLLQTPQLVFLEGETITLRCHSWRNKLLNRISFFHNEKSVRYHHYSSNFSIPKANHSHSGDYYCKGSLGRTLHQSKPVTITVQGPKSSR

On to “F243A/V264A Fc (SEQ ID NO: 7) (from UniProt P0DOX5 218-448)”, for which the Fold Increase in RU vs WT IgG1 was determined as 0.5 fold.
